The target in the assay is T1, recombinant mouse LRP6His chimera (mouse, UniProt O88572 20-1370).
T1 construct: extracellular domain; not shown: His tag
T1 sequence (looked up): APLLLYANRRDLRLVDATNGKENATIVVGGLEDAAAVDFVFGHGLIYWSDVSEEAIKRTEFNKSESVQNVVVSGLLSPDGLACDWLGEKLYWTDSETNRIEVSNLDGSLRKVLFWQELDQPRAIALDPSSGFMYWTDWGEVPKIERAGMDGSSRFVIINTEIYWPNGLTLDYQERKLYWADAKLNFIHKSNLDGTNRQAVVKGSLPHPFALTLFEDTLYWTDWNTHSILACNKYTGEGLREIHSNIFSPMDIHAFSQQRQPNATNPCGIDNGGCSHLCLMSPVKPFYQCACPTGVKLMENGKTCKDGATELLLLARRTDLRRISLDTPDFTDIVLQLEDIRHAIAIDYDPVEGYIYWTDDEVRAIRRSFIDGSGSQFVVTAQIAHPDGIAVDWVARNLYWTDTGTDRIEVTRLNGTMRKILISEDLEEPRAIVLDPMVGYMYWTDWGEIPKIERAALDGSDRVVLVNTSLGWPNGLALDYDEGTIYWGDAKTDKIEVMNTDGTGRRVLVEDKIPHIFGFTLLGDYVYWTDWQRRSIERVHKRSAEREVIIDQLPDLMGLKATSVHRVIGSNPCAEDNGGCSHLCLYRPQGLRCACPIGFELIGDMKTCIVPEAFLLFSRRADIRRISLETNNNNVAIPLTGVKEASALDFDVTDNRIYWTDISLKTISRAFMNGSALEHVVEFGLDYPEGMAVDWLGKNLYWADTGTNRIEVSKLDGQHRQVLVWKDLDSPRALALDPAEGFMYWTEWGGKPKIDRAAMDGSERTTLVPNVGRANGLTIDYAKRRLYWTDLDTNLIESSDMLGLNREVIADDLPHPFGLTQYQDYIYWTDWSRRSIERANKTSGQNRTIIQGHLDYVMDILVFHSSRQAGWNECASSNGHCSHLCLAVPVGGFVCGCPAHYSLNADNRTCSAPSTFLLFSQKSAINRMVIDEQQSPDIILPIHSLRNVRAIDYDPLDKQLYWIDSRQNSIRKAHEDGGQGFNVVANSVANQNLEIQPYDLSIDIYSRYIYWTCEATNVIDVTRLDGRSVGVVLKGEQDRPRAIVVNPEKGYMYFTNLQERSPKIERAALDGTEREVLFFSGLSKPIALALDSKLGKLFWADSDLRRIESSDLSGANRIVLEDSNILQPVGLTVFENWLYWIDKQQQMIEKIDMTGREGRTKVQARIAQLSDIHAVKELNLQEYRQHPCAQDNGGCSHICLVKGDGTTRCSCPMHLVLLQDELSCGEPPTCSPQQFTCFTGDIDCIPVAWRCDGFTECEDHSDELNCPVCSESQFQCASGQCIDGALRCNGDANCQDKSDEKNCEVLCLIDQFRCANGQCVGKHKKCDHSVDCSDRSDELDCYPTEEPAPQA
In words: single-point ELISA, IgG1 on coated antigen. As to the method:
FIGS. 1a and 1b show LRP six antibodies. (A) The amino acid sequences of the complementarity determining regions (CDR) of the heavy (H) and the light (L) chains are presented. The antibodies were grouped into unique epitopes as determined by competitive ELISAs. (B) Single-point ELISAs were performed on 96-well Maxisorb immune plates coated with the […] of mouse LRP5, mouse LRP6 and human LRP6 chimeras. The plates were incubated with the purified Fab or IgG1 at the concentrations indicated followed by incubation with horseradish peroxidase (HRP)-conjugated anti-kappa antibody. The wells were washed eight times followed by incubation with 3,3′,5,5′-tetramethylbenzidine/H₂O₂ peroxidase (TMB) substrate for 5-10 min. The reaction was stopped by adding one M H₃PO₄ and the absorbance was measured spectrometrically at 450 nm in a microtiter plate reader.
The full length IgG1s were purified and a single-point ELISA was done to determine the specificity of the antibodies. […] A multipoint competitive ELISA was used to determine the relative affinities of the antibodies to the recombinant antigen.

B1: LRP6-E3 IgG1 antibody (antibody, V domains shown)
VH: EVQLVESGGGLVQPGGSLRLSCAASGFNLYYYSMHWVRQAPGKGLEWVASIYSSYGYTYYADSVKGRFTISADTSKNTAYLQMNSLRAEDTAVYYCARYAGYYYYPWAYYGWPFSGLDYWGQGTLVTVSS
VL: DIQMTQSPSSLSASVGDRVTITCRASQSVSSAVAWYQQKPGKAPKLLIYSASSLYSGVPSRFSGSRSGTDFTLTISSLQPEDFATYYCQQAGSAPYHLITFGQGTKVEIKR
notes: Tested as purified full length IgG1
Take B1: the binding result is listed as “no binding”.

Values taken from patent publication US20220281969A1 (ANTLERA THERAPEUTICS, published 2022).
